In CN114146174A (HEADA BIOPHARMACEUTICAL SUZHOU CO LTD, dated 2022):

How the values were obtained:
人OX40抗原(购自Sino) = target: T1, 人OX40抗原(购自Sino) (human, UniProt P43489 29-216, limits assumed); experiment: direct ELISA on coated human OX40 antigen; relative binding activity after 1 month at 40℃±2℃, pH 5.0-7.0 samples
T1 construct: Bought antigen coated on the ELISA plate; also called human OX40; CD134
T1 sequence (looked up): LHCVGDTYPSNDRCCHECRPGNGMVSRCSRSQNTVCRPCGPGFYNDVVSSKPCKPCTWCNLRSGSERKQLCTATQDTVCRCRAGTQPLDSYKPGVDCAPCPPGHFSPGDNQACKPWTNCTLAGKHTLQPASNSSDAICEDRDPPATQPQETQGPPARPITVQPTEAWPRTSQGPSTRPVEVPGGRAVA

人PD-L1抗原(购自Promega) = target: T2, 人PD-L1抗原(购自Promega) (human, UniProt Q9NZQ7 19-238, limits assumed); experiment: direct ELISA on coated human PD-L1 antigen; relative binding activity after 1 month at 40℃±2℃, pH 5.0-7.0 samples
T2 construct: Bought antigen coated on the ELISA plate; also called human PD-L1; CD274
T2 sequence (Q9NZQ7 19-238 limits assumed): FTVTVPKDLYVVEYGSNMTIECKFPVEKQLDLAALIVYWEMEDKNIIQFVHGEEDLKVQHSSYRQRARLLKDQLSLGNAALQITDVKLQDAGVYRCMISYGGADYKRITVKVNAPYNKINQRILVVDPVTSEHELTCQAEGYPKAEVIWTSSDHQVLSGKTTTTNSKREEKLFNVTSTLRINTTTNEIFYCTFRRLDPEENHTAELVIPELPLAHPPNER

B1: 抗PD-L1/OX40双特异性抗体 (bispecific antibody, human IgG2, kappa)
heavy: QVQLVQSGAEVKKPGASVKVSCKASGYTFTSYYMHWVRQAPGQGLEWMGIINPSGGSTSYAQKFQGRVTMTRDTSTSTVYMELSSLRSEDTAVYYCARDHASSSWYTTHLDLWGRGTLVTVSSASTKGPSVFPLAPCSRSTSESTAALGCLVKDYFPEPVTVSWNSGALTSGVHTFPAVLQSSGLYSLSSVVTVPSSNFGTQTYTCNVDHKPSNTKVDKTVERKCCVECPPCPAPPVAGPSVFLFPPKPKDTLMISRTPEVTCVVVDVSHEDPEVQFNWYVDGVEVHNAKTKPREEQFNSTFRVVSVLTVVHQDWLNGKEYKCKVSNKGLPAPIEKTISKTKGQPREPQVYTLPPSREEMTKNQVSLTCLVKGFYPSDIAVEWESNGQPENNYKTTPPMLDSDGSFFLYSKLTVDKSRWQQGNVFSCSVMHEALHNHYTQKSLSLSPGGGGGSGGGGSQVQLQESGGGLVQPGGSLRLSCAASAYTISRNSMGWFRQAPGKGLEGVAAIESDGSTSYSDSVKGRFTISLDNSKNTLYLEMNSLRAEDTAVYYCAAPKVGLGPRTALGHLAFMTLPALNYWGQGTLVTVSS
light: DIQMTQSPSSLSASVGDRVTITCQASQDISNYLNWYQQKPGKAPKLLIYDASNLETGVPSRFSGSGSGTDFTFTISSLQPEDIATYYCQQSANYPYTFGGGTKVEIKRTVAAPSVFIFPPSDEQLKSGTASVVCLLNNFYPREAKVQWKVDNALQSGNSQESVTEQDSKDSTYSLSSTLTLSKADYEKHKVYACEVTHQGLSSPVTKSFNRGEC
notes: also called 重组抗肿瘤坏死因子受体超家族成员4(OX40)和抗程序性死亡配体1(PD-L1)双特异性抗体; anti-PD-L1/OX40 bispecific antibody
binding result (人OX40抗原(购自Sino)): binds
binding result (人PD-L1抗原(购自Promega)): binds
